± gives the standard deviation.
Assay: protein stability index of a GFP-peptide fusion (GPS, HEK-293T) (PSI 1-6); higher = more stable
[1] = treatment: DMSO, c terminus: a fixed tail appended
[2] = treatment: MLN4924 1 uM, 8 h, c terminus: a fixed tail appended
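Further: 24-mer peptide tiles fused after GFP, lentivirally expressed, FACS-sorted into six equal bins by GFP/DsRed ratio, decoded by Illumina sequencing, PSI is the read-weighted mean bin number.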

## ERPLPNPEGLDSDFLAVLSDYPSP [SLA]
[1]
  protein stability index: 4.26 ± 0.39
[2]
  protein stability index: 4.58 ± 0.41

## RGREAGPPQPMVPLAVENQAGGEG [PBXIP1]
[1]
  protein stability index: 5.27 ± 0.38
[2]
  protein stability index: 5.25 ± 0.16

## ADFSSMLSEEEKEELKAELVQLED [TPD52L1]
[1]
  protein stability index: 5.47 ± 0.32
[2]
  protein stability index: 5.3 ± 0.37

## VTVRVPTHEEGSYLFWEFATDNYD [ACBD3]
[1]
  protein stability index: 2.19 ± 0.34
[2]
  protein stability index: 2.31 ± 0.62

## STDPNIVRKKERGREEKCVWKHGI [TAF7L]
[1]
  protein stability index: 3.31 ± 0.37
[2]
  protein stability index: 3.51 ± 0.26

## STDTESNNEEQRSGLIYLTNHIAP [IKZF1]
[1]
  protein stability index: 4.63 ± 0.2
[2]
  protein stability index: 4.81 ± 0.21

## ELFRLRGIKAQVALRLAELARRRR [NOP53]
[1]
  protein stability index: 2.36 ± 0.23
[2]
  protein stability index: 2.55 ± 0.22

## LYFKDKIFNVAIPRFHMACPTFRV [FBXO3]
[1]
  protein stability index: 2.98 ± 0.92
[2]
  protein stability index: 2.65 ± 0.68

## SFFLQIYLIMIFLGLYINFRHLYK [HACD3]
[1]
  protein stability index: 2.79 ± 0.2
[2]
  protein stability index: 2.52 ± 0.041

## IRRPRLYLLQWLKSDKALMMLFND [PLK2]
[1]
  protein stability index: 2.58 ± 0.48
[2]
  protein stability index: 2.75 ± 0.26

## VDLFKQLCEKEPLGNVLFSPICLS [SERPINB5]
[1]
  protein stability index: 1.98 ± 0.18
[2]
  protein stability index: 2.08 ± 0.41

## YDPRFNSWIQLPPMQERRASFYAC [KLHL14]
[1]
  protein stability index: 2.14 ± 0.27
[2]
  protein stability index: 2.22 ± 0.17

## LISCSEDGSVRIWELREKQQLAAE [WDR41]
[1]
  protein stability index: 2.89 ± 0.28
[2]
  protein stability index: 2.97 ± 0.2

## GVFVGVISFGQLSDRFGRKKVYLT [SLC22A15]
[1]
  protein stability index: 2.82 ± 0.43
[2]
  protein stability index: 2.7 ± 0.39

## LLSKKGALQSRAAQRHRGSAKDGG [PLEKHN1]
[1]
  protein stability index: 4.31 ± 0.12
[2]
  protein stability index: 4.39 ± 0.28

## AEERRRQNLQEEKERKLECLPPEP [FAF2]
[1]
  protein stability index: 5.71 ± 0.18
[2]
  protein stability index: 5.51 ± 0.42

## QLAQLRCEMEQQSQEYQILLDVKT [KRT16]
[1]
  protein stability index: 3.34 ± 0.076
[2]
  protein stability index: 3.55 ± 0.28

## NSPLHIAALNNHPDIMNLLIKSGA [FEM1C]
[1]
  protein stability index: 2.54 ± 0.1
[2]
  protein stability index: 2.78 ± 0.12

## NISDLPFLAENSAFPKMALQAKQD [LCOR]
[1]
  protein stability index: 4.42 ± 0.2
[2]
  protein stability index: 4.39 ± 0.2

## MCYGYGCGCGSFCRLGYGCGYEGC [KRTAP19-2]
[1]
  protein stability index: 2.35 ± 0.23
[2]
  protein stability index: 2.43 ± 0.54

## EDSINNSLVQLQASHQQQVLPPRQ [MYBL2]
[1]
  protein stability index: 4.93 ± 0.14
[2]
  protein stability index: 4.72 ± 0.19

## EWETEVEMDKLRASDIMEPNLTYV [CLCN6]
[1]
  protein stability index: 3.85 ± 0.32
[2]
  protein stability index: 4.08 ± 0.19

## GRRAATALLWLSCSIALLRALATS [GNAS]
[1]
  protein stability index: 2.26 ± 0.37
[2]
  protein stability index: 2.02 ± 0.24

## ESLPRSEIDEKVTDLVQFLLFKYQ [MAGEA10]
[1]
  protein stability index: 2.35 ± 0.069
[2]
  protein stability index: 2.83 ± 0.5

## EHCGAVCFVKDNPQKSYFIRLYGL [WAS]
[1]
  protein stability index: 2.32 ± 0.35
[2]
  protein stability index: 2.31 ± 0.64

## LIRSLFHGFLFMIFQIGVLGFGPT [SOAT1]
[1]
  protein stability index: 3.52 ± 0.5
[2]
  protein stability index: 3.28 ± 0.63

## QALEQFAAAAAHSTPVRREVTDKE [EPB41L3]
[1]
  protein stability index: 5.02 ± 0.22
[2]
  protein stability index: 4.89 ± 0.41

## GKGDDSETDKNNCSNAKAVETDV [KCNA4]
treatment: DMSO, c terminus: native
  protein stability index: 5.13 ± 0.28
treatment: MLN4924 1 uM, 8 h, c terminus: native
  protein stability index: 5.52 ± 0.38

## RAPHKESTLPRSGSSGGQQPSGMK [CHCHD6]
[1]
  protein stability index: 4.96 ± 0.58
[2]
  protein stability index: 5.05 ± 0.46

## REKPFKCQECGKTFRVSSDLIKHQ [ZNF75A]
[1]
  protein stability index: 4.73 ± 0.19
[2]
  protein stability index: 4.72 ± 0.32

## ISCFNNAPPAKLACPVCSKMVPRY [FAN1]
[1]
  protein stability index: 2.24 ± 0.19
[2]
  protein stability index: 2.67 ± 0.26

## TIDNDIVSMEIFFKAWLHNSGTDQ [M1AP]
[1]
  protein stability index: 2.5 ± 0.23
[2]
  protein stability index: 2.36 ± 0.084

## EIIEGNTKSHIMLVQRQMSVIEED [NECAB1]
[1]
  protein stability index: 3.56 ± 0.35
[2]
  protein stability index: 3.73 ± 0.26

## PVESHIQKNKKILKSAKDLPPDAL [KMT2E]
[1]
  protein stability index: 4.86 ± 0.24
[2]
  protein stability index: 4.71 ± 0.44

## QVDSLRPASFPTWGCDLGVVTRVV [BRF1]
[1]
  protein stability index: 2.66 ± 0.11
[2]
  protein stability index: 2.5 ± 0.18

## GAERLDALLADEERCLSCILAQQP [TRADD]
[1]
  protein stability index: 3.59 ± 0.25
[2]
  protein stability index: 3.83 ± 0.28

## HQPPYIIAVLPRYVEIRTFEPRLL [VPS39]
[1]
  protein stability index: 2.61 ± 0.75
[2]
  protein stability index: 2.38 ± 0.37

## HGDPIPKVEFTEEEIKTWGTVFQE [TPH1]
[1]
  protein stability index: 4.87 ± 0.2
[2]
  protein stability index: 4.86 ± 0.16

## RRKEEEVQQQKLAEERRRQNLQEE [FAF2]
[1]
  protein stability index: 5.56 ± 0.18
[2]
  protein stability index: 5.45 ± 0.37

## LSSEVLVGDLMSPFDQSGLGAEES [ATF4]
[1]
  protein stability index: 5 ± 0.48
[2]
  protein stability index: 4.84 ± 0.18

## GRVVPESQCQMETKPLAIHPCGDK [ADAMTSL2]
[1]
  protein stability index: 4.53 ± 0.17
[2]
  protein stability index: 4.71 ± 0.46

## VQYLGQAPELLGGAEPGTYLTGTI [ADAMTS4]
[1]
  protein stability index: 2.33 ± 0.7
[2]
  protein stability index: 2.98 ± 0.72

## GLHYIAFRKVKQMHLNFMDEKDRI [DNAJC4]
[1]
  protein stability index: 2.54 ± 0.29
[2]
  protein stability index: 2.65 ± 0.35

## EDPYMMGRIACANVLSDLYAMGIT [SEPHS2]
[1]
  protein stability index: 2.39 ± 0.19
[2]
  protein stability index: 2.36 ± 0.18

## RTYFHEFGHVMHQICAQVSFFFPP [NLN]
[1]
  protein stability index: 2.43 ± 0.43
[2]
  protein stability index: 3.41 ± 0.054
